# From patent US20140087995A1 (published 2014)
# Numbered stars: 1 amine (or outer) side, 2 acyl side, 3 side chain; on linkers, the order of the positions; unused ones are H or OH. Bridge positions count the residues as written; N and C are the ends. Side chains are listed from the residue outwards. Ends that are not written are not given here. * marks the point of attachment. C20 diacid = O=C(O)CCCCCCCCCCCCCCCCCCC(=O)*; γGlu = O=C(O)[C@H](CCC(=O)[*:2])N[*:1]; AEEA = NCCOCCOCC(=O)O
# T1: human calcitonin receptor (human, UniProt P30988 25-474)
# T1 construct: whole, on cells; Assayed as cell membranes of BHK tk'ts 13 cells stably transfected with the human calcitonin receptor (Assay VII); also called hCTR; hCT
# T1 sequence (looked up): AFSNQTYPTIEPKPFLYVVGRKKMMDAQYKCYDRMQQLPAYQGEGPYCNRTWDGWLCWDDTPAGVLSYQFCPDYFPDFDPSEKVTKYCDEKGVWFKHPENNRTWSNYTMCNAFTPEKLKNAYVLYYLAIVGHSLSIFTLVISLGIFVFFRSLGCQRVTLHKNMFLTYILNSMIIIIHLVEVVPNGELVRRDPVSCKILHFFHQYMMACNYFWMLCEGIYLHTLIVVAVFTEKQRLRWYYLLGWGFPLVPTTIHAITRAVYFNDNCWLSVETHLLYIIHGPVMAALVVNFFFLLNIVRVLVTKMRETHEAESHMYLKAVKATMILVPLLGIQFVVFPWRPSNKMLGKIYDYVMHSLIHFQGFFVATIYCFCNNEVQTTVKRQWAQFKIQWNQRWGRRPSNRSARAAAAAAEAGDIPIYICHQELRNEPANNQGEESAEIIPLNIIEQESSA
# Legend:
# [1] = target: T1, human calcitonin receptor; assay: IC50 at hCTR divided by IC50 at hAmylin-R (SPA competition assays V and VII)
# In short: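 IC₅₀ values were derived by one-site competition analysis of SPA counts. Cell membranes (35 ng/μL) with SPA beads were incubated with test compounds for 120 min at 25° C in Hepes buffer, pH 7.4, containing CaCl2, MgCl₂, OA and Tween20.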
# [2] = target: T1, human calcitonin receptor; assay: SPA competition vs 125I-calcitonin, membranes of BHK cells with human calcitonin receptor (Assay VII)
# In short: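 BHK hCTR membranes 35 ng/μL + SPA beads 0.05 mg/well; buffer 50 mM Hepes pH 7.4, 1 mM CaCl2, 5 mM MgCl₂, 0.1% OA, 0.02% Tween20. 120 min, 25° C., shaking. Scintillation count; IC50 by one-site binding competition.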
Binder,Ratio hCT/hAmylin binding [1],IC50 [2] [nM]
"K([AEEA-C20 diacid])CNTATCATQRLAHFLRHSSPNFGAIPSSTNVGSNTY-NH2 (disulfide 2-7; N-terminus assumed; SMILES CC[C@H](C)[C@H](NC(=O)[C@H](C)NC(=O)CNC(=O)[C@H](Cc1ccccc1)NC(=O)[C@H](CC(N)=O)NC(=O)[C@@H]1CCCN1C(=O)[C@H](CO)NC(=O)[C@H](CO)NC(=O)[C@H](Cc1c[nH]cn1)NC(=O)[C@H](CCCNC(=N)N)NC(=O)[C@H](CC(C)C)NC(=O)[C@H](Cc1ccccc1)NC(=O)[C@H](Cc1c[nH]cn1)NC(=O)[C@H](C)NC(=O)[C@H](CC(C)C)NC(=O)[C@H](CCCNC(=N)N)NC(=O)[C@H](CCC(N)=O)NC(=O)[C@@H](NC(=O)[C@H](C)NC(=O)[C@@H]1CSSC[C@H](NC(=O)[C@@H](N)CCCCNC(=O)COCCOCCNC(=O)CCCCCCCCCCCCCCCCCCC(=O)O)C(=O)N[C@@H](CC(N)=O)C(=O)N[C@@H]([C@@H](C)O)C(=O)N[C@@H](C)C(=O)N[C@@H]([C@@H](C)O)C(=O)N1)[C@@H](C)O)C(=O)N1CCC[C@H]1C(=O)N[C@@H](CO)C(=O)N[C@@H](CO)C(=O)N[C@H](C(=O)N[C@@H](CC(N)=O)C(=O)N[C@H](C(=O)NCC(=O)N[C@@H](CO)C(=O)N[C@@H](CC(N)=O)C(=O)N[C@H](C(=O)N[C@@H](Cc1ccc(O)cc1)C(N)=O)[C@@H](C)O)C(C)C)[C@@H](C)O, also called compound 90) [N^ε1-[2-[2-[2-(19-carboxynonadecanoylamino)ethoxy]ethoxy]acetyl]-[His14,Arg17,Pro21,Pro27]-h-amylin]",42.2,2.57
"K([γGlu-γGlu-C20 diacid])CNTATCATQRLAEFLRHSSPNFGAIPSSTNVGSRTY-NH2 (disulfide 2-7; N-terminus assumed; SMILES CC[C@H](C)[C@H](NC(=O)[C@H](C)NC(=O)CNC(=O)[C@H](Cc1ccccc1)NC(=O)[C@H](CC(N)=O)NC(=O)[C@@H]1CCCN1C(=O)[C@H](CO)NC(=O)[C@H](CO)NC(=O)[C@H](Cc1c[nH]cn1)NC(=O)[C@H](CCCNC(=N)N)NC(=O)[C@H](CC(C)C)NC(=O)[C@H](Cc1ccccc1)NC(=O)[C@H](CCC(=O)O)NC(=O)[C@H](C)NC(=O)[C@H](CC(C)C)NC(=O)[C@H](CCCNC(=N)N)NC(=O)[C@H](CCC(N)=O)NC(=O)[C@@H](NC(=O)[C@H](C)NC(=O)[C@@H]1CSSC[C@H](NC(=O)[C@@H](N)CCCCNC(=O)CC[C@H](NC(=O)CC[C@H](NC(=O)CCCCCCCCCCCCCCCCCCC(=O)O)C(=O)O)C(=O)O)C(=O)N[C@@H](CC(N)=O)C(=O)N[C@@H]([C@@H](C)O)C(=O)N[C@@H](C)C(=O)N[C@@H]([C@@H](C)O)C(=O)N1)[C@@H](C)O)C(=O)N1CCC[C@H]1C(=O)N[C@@H](CO)C(=O)N[C@@H](CO)C(=O)N[C@H](C(=O)N[C@@H](CC(N)=O)C(=O)N[C@H](C(=O)NCC(=O)N[C@@H](CO)C(=O)N[C@@H](CCCNC(=N)N)C(=O)N[C@H](C(=O)N[C@@H](Cc1ccc(O)cc1)C(N)=O)[C@@H](C)O)C(C)C)[C@@H](C)O, also called compound 89)",28,32.5
"KCNTATCATQRLADFLRHSSK([γGlu-γGlu-C20 diacid])NFGAIPSSTNVGSDTY-NH2 (disulfide 2-7; N-terminus assumed; SMILES CC[C@H](C)[C@H](NC(=O)[C@H](C)NC(=O)CNC(=O)[C@H](Cc1ccccc1)NC(=O)[C@H](CC(N)=O)NC(=O)[C@H](CCCCNC(=O)CC[C@H](NC(=O)CC[C@H](NC(=O)CCCCCCCCCCCCCCCCCCC(=O)O)C(=O)O)C(=O)O)NC(=O)[C@H](CO)NC(=O)[C@H](CO)NC(=O)[C@H](Cc1c[nH]cn1)NC(=O)[C@H](CCCNC(=N)N)NC(=O)[C@H](CC(C)C)NC(=O)[C@H](Cc1ccccc1)NC(=O)[C@H](CC(=O)O)NC(=O)[C@H](C)NC(=O)[C@H](CC(C)C)NC(=O)[C@H](CCCNC(=N)N)NC(=O)[C@H](CCC(N)=O)NC(=O)[C@@H](NC(=O)[C@H](C)NC(=O)[C@@H]1CSSC[C@H](NC(=O)[C@@H](N)CCCCN)C(=O)N[C@@H](CC(N)=O)C(=O)N[C@@H]([C@@H](C)O)C(=O)N[C@@H](C)C(=O)N[C@@H]([C@@H](C)O)C(=O)N1)[C@@H](C)O)C(=O)N1CCC[C@H]1C(=O)N[C@@H](CO)C(=O)N[C@@H](CO)C(=O)N[C@H](C(=O)N[C@@H](CC(N)=O)C(=O)N[C@H](C(=O)NCC(=O)N[C@@H](CO)C(=O)N[C@@H](CC(=O)O)C(=O)N[C@H](C(=O)N[C@@H](Cc1ccc(O)cc1)C(N)=O)[C@@H](C)O)C(C)C)[C@@H](C)O, also called compound 59)",4.3,5.14
"K([γGlu-C20 diacid])CNTATCATQRLAHFLRHSSPNFGAIPSSTNVGSNTY-NH2 (disulfide 2-7; N-terminus assumed; SMILES CC[C@H](C)[C@H](NC(=O)[C@H](C)NC(=O)CNC(=O)[C@H](Cc1ccccc1)NC(=O)[C@H](CC(N)=O)NC(=O)[C@@H]1CCCN1C(=O)[C@H](CO)NC(=O)[C@H](CO)NC(=O)[C@H](Cc1c[nH]cn1)NC(=O)[C@H](CCCNC(=N)N)NC(=O)[C@H](CC(C)C)NC(=O)[C@H](Cc1ccccc1)NC(=O)[C@H](Cc1c[nH]cn1)NC(=O)[C@H](C)NC(=O)[C@H](CC(C)C)NC(=O)[C@H](CCCNC(=N)N)NC(=O)[C@H](CCC(N)=O)NC(=O)[C@@H](NC(=O)[C@H](C)NC(=O)[C@@H]1CSSC[C@H](NC(=O)[C@@H](N)CCCCNC(=O)CC[C@H](NC(=O)CCCCCCCCCCCCCCCCCCC(=O)O)C(=O)O)C(=O)N[C@@H](CC(N)=O)C(=O)N[C@@H]([C@@H](C)O)C(=O)N[C@@H](C)C(=O)N[C@@H]([C@@H](C)O)C(=O)N1)[C@@H](C)O)C(=O)N1CCC[C@H]1C(=O)N[C@@H](CO)C(=O)N[C@@H](CO)C(=O)N[C@H](C(=O)N[C@@H](CC(N)=O)C(=O)N[C@H](C(=O)NCC(=O)N[C@@H](CO)C(=O)N[C@@H](CC(N)=O)C(=O)N[C@H](C(=O)N[C@@H](Cc1ccc(O)cc1)C(N)=O)[C@@H](C)O)C(C)C)[C@@H](C)O, also called compound 70) [N^ε1-[(4S)-4-carboxy-4-(19-carboxynonadecanoylamino)butanoyl]-[His14,Arg17,Pro21,Pro27]-h-amylin]",60.8,10.3

# Now from value to binder:
Ratio hCT/hAmylin binding [1],IC50 [2] [nM],Binder
35.6,22.5,"K([γGlu-γGlu-C20 diacid])CNTATCATQRLAEFLRHSSPNFGAIPSSTNVGHNTY-NH2 (disulfide 2-7; N-terminus assumed; SMILES CC[C@H](C)[C@H](NC(=O)[C@H](C)NC(=O)CNC(=O)[C@H](Cc1ccccc1)NC(=O)[C@H](CC(N)=O)NC(=O)[C@@H]1CCCN1C(=O)[C@H](CO)NC(=O)[C@H](CO)NC(=O)[C@H](Cc1c[nH]cn1)NC(=O)[C@H](CCCNC(=N)N)NC(=O)[C@H](CC(C)C)NC(=O)[C@H](Cc1ccccc1)NC(=O)[C@H](CCC(=O)O)NC(=O)[C@H](C)NC(=O)[C@H](CC(C)C)NC(=O)[C@H](CCCNC(=N)N)NC(=O)[C@H](CCC(N)=O)NC(=O)[C@@H](NC(=O)[C@H](C)NC(=O)[C@@H]1CSSC[C@H](NC(=O)[C@@H](N)CCCCNC(=O)CC[C@H](NC(=O)CC[C@H](NC(=O)CCCCCCCCCCCCCCCCCCC(=O)O)C(=O)O)C(=O)O)C(=O)N[C@@H](CC(N)=O)C(=O)N[C@@H]([C@@H](C)O)C(=O)N[C@@H](C)C(=O)N[C@@H]([C@@H](C)O)C(=O)N1)[C@@H](C)O)C(=O)N1CCC[C@H]1C(=O)N[C@@H](CO)C(=O)N[C@@H](CO)C(=O)N[C@H](C(=O)N[C@@H](CC(N)=O)C(=O)N[C@H](C(=O)NCC(=O)N[C@@H](Cc1c[nH]cn1)C(=O)N[C@@H](CC(N)=O)C(=O)N[C@H](C(=O)N[C@@H](Cc1ccc(O)cc1)C(N)=O)[C@@H](C)O)C(C)C)[C@@H](C)O, also called compound 87)"
145,26,"K([γGlu-γGlu-C20 diacid])CNTATCATQRLAHFLRHSSPNFGAIPSSTNVGSNTY-NH2 (disulfide 2-7; N-terminus assumed; SMILES CC[C@H](C)[C@H](NC(=O)[C@H](C)NC(=O)CNC(=O)[C@H](Cc1ccccc1)NC(=O)[C@H](CC(N)=O)NC(=O)[C@@H]1CCCN1C(=O)[C@H](CO)NC(=O)[C@H](CO)NC(=O)[C@H](Cc1c[nH]cn1)NC(=O)[C@H](CCCNC(=N)N)NC(=O)[C@H](CC(C)C)NC(=O)[C@H](Cc1ccccc1)NC(=O)[C@H](Cc1c[nH]cn1)NC(=O)[C@H](C)NC(=O)[C@H](CC(C)C)NC(=O)[C@H](CCCNC(=N)N)NC(=O)[C@H](CCC(N)=O)NC(=O)[C@@H](NC(=O)[C@H](C)NC(=O)[C@@H]1CSSC[C@H](NC(=O)[C@@H](N)CCCCNC(=O)CC[C@H](NC(=O)CC[C@H](NC(=O)CCCCCCCCCCCCCCCCCCC(=O)O)C(=O)O)C(=O)O)C(=O)N[C@@H](CC(N)=O)C(=O)N[C@@H]([C@@H](C)O)C(=O)N[C@@H](C)C(=O)N[C@@H]([C@@H](C)O)C(=O)N1)[C@@H](C)O)C(=O)N1CCC[C@H]1C(=O)N[C@@H](CO)C(=O)N[C@@H](CO)C(=O)N[C@H](C(=O)N[C@@H](CC(N)=O)C(=O)N[C@H](C(=O)NCC(=O)N[C@@H](CO)C(=O)N[C@@H](CC(N)=O)C(=O)N[C@H](C(=O)N[C@@H](Cc1ccc(O)cc1)C(N)=O)[C@@H](C)O)C(C)C)[C@@H](C)O, also called compound 92)"
